In publication PMC6713331:

Biological target: FLAG-tagged BVLF1 (Epstein-Barr virus)
Experiment: co-IP; FLAG-tagged BVLF1 as bait with BFRF2 together with BGLF3 or BGLF3(T42A) in 2089 cells; anti-FLAG M2 agarose; anti-Myc blot; quantitation from two independent experiments

B1: BFRF2 (natural protein)
chain: MALFLARHTLSGTGAGCHGRGPAPDVSEVDLTLQALGERGFSRLLDLGLACLDLSYVEMREFVVWGRPPASEAAVASTPGSLFRSHSSAYWLSEVERPGGLVRWARSQTSPSSLTLAPHLGPSLLSLSVVTGGGCGAVAFCNAFFLAYFLVVRSVFPAFSDRIAAWICDRSPFCENTRAVARGYRGLVKRFLAFVFERSSYDPPLLRQNSRPVERCFAIKNYVPGLDSQSCVTVPSFSRWAQSHASELDPREIRDRVTPATAPSFVADHASALLASLQKKASDTPCGNPIQWMWYRLLVNSCLRSAHCLLPIPAVSEGGRKTGGGVGEELVGAGGPCLSRDVFVAIVSRNVLSCLLNVPAAGPRAYKCFRSHASRPVSGPDYPPLAVFCMDCGYCLNFGKQTGVGGRLNSFRPTLQFYPRDQKEKHVLTCHASGRVYCSNCGSAAVGCQRLAEPPSARSGWRPRIRAVLPHNAAYELDRGSRLLDAIIPCLGPDRTCMRPVVLRGVTVRQLLYLTLRTEARAVCSICQQRQAPEDARDEPHLFSSCLEVELPPGERCAGCRLYQTRYGTPAAQAHPPGEAGGGFSRQSPAS
fold increase of the BVLF1-BFRF2 interaction with wild type BGLF3 relative to no BGLF3: 6 fold
